According to patent US20210333284A1, “METHODS AND MATERIALS FOR LARGE-SCALE ASSESSMENT OF LIGAND BINDING SELECTIVITY OF G-QUADRUPLEX RECOGNITION USING CUSTOM G4 MICROARRAYS” (Purdue Research Foundation, priority 2020, published 2021):
One block for each molecule: values may come before it.

Key:
[1] = test system: genomic G4 sequences (folded G4 structures); assay: G4 microarray binding in potassium vs lithium; set-up: species or system human; details: GST-tagged proteins
Procedure: The binding specificities of several molecules were evaluated. Microarrays were preincubated with 100 mM potassium chloride to induce G4 formation. Binding of each molecule is measured by detection of fluorescence intensity at each of the microarray features. BG4 and pyridostatin were conjugated with Cy5. Cellular proteins were expressed as chimeric proteins containing GST, and binding for these proteins was detected using an anti-GST antibody conjugated with Cy5 (Materials and Methods). G4 Structures Fold on DNA Microarrays. To evaluate the utility of DNA microarrays to examine G4-binding specificity, a Cy5-labeled pyridostatin (Cy5-PDS), a small molecule known to bind broadly to G4 structures, was synthesized.^13 A Cy5 conjugated version of BG4 (Cy5-BG4), an antibody developed to bind G4s, was also obtained.^31 FIG. 1A, B presents replicate binding intensities to 15,491 DNA sequences on the Design 3 microarray using either Cy5-PDS or Cy5-BG4. For Cy5-PDS, robust binding is observed at 1 μM, with fluorescence intensities ranging over 100-fold between strongest and weakest bound DNA features. The fluorescence-binding intensities of Cy5-PDS are proportional to the concentration of pyridostatin used). […] Antibody binding to non-G4 features increases with higher concentrations, and in some cases non-G4 sequences are more strongly bound by Cy5-BG4 than G4 sequences, including multiple cytosine-rich negative control sequences. Inhibition of G4 Formation Inhibits Cy5-PDS and Cy5-BG4 Binding. Cy5-PDS and Cy5-BG4 binding under conditions that inhibit G4 formation was examined to evaluate if G4 structures form on the microarray and are required for binding. […] It is noted that many sequences, in addition to the oncogene G4 sequences, are capable of forming G4s. […] For Cy5-BG4, the decrease in binding was up to 270-fold for genomic G4 sequences, while binding to negative controls decreased up to 23-fold (FIG. 1D,). In a second experiment, Cy5-PDS binding following a primer extension reaction that produces dsDNA^24 was examined (see Materials and Methods), anticipating that dsDNA would predominate over G4 formation^13. […] 2,27,28
(§1) Microarrays were preincubated with a 100 mM potassium chloride solution for 1 h at RT to induce G4 formation. Protein binding microarray experiments were then performed as previously described.^23 Microarrays were blocked with 4% nonfat dry milk in a potassium phosphate buffer before incubation with proteins or small molecules. Expressed proteins were blocked with 4% nonfat dry milk, ssDNA, and BSA. For the validation experiments, microarrays were also treated with 100 mM lithium chloride to inhibit G4 formation. For experiments examining dsDNA, single-stranded DNA probes were made double-stranded using a primer complementary to a 24-mer constant sequence following the method described previously.^23,24 Double stranding efficiency was monitored using 4% Cy3-dCTP.
Protein or molecule-bound microarrays were scanned with the G5761A SureScan Dx Microarray Scanner System (Agilent) to detect a Cy5 signal at two laser settings (30 and 100 PMT) to ensure signal intensities were below saturation. Spot intensities from microarray images were extracted using the Agilent Feature Extraction Software and are reported as raw fluorescence units. All binding assays were performed at least twice, with high agreement between replicates (R>0.8). Microarrays with the fewest number of saturated spots were used for further analysis. Median intensity was then computed for probes containing identical sequence on each microarray. […]

[2] = test system: G4 sequences and non-G4 ssDNA controls on Design 3 microarray; assay: Custom G4 DNA microarray, direct binding by fluorescence intensity; set-up: species or system human
Excerpt: Three Agilent DNA microarrays (TABLE 1) were designed, each with four identical sectors that contain ca.177,440 ssDNA 60-mers to examine G4-binding specificity. Arrays were designed with 9-73 replicates of each unique sequence to ensure statistical significance (TABLE 1). Each microarray contains different sets of G4 variants designed to examine several sequence parameters that affect G4 formation and binding specificity such as loop length (Design 1), loop sequence (Design 2), tail sequence (Design 2), and single nucleotide variants of six known G4s (Design 3). All microarrays include a set of 19 sequences from human telomeres and oncogene promoters known to form G4s with various topologies as positive controls (TABLE 2). Designs 2 and 3 have a set of 295 additional G4-forming sequences from the literature.^30 For the loop length variants, the length of the tails and loops of four different MYC G4 sequences (MYC Pu27, MYC Pu18ntd, MYC Pu22, and MYC Pu22 NMR mutant) was increased up to five times their length. Loop and tail sequences were varied using A, T, G, and C polynucleotide stretches and a subset of combinations. For the loop sequence variants, 4,096 sequences of the form NGGGNGGGNNGGGNGGGN (SEQ ID NO: 2) and 64 variants of the form GGGNGGGNGGGNGGG (SEQ ID NO: 1) were generated. For the tail variants, 256 versions of the major MYC G4 with all possible dinucleotide tails ([…] (SEQ ID NO: 3)) were generated. […]
The binding specificities of several molecules were evaluated. […] Binding of each molecule is measured by detection of fluorescence intensity at each of the microarray features. […] Cellular proteins were expressed as chimeric proteins containing GST, and binding for these proteins was detected using an anti-GST antibody conjugated with Cy5 (Materials and Methods). […] For Cy5-PDS, robust binding is observed at 1 μM, with fluorescence intensities ranging over 100-fold between strongest and weakest bound DNA features. The fluorescence-binding intensities of Cy5-PDS are proportional to the concentration of pyridostatin used). […]

human telomeric G4s = assay: G4 microarray direct binding to telomeric G4s; details: GST-tagged helicases
Procedure: as §1
Protein or molecule-bound microarrays were scanned with the G5761A SureScan Dx Microarray Scanner System (Agilent) to detect a Cy5 signal at two laser settings (30 and 100 PMT) to ensure signal intensities were below saturation. Spot intensities from microarray images were extracted using the Agilent Feature Extraction Software and are reported as raw fluorescence units. […] The measured array data (Design 3, PDS) and predictions were normalized using the following
DNA Microarray Binding Experiments DNA microarray experiments were performed and analyzed as described previously. […]

[3] = test system: G4 sequences on custom G4 microarray; assay: G4 microarray competition of unlabeled molecule with Cy5-PDS; format: binding, human
Excerpt: Whether the microarray platform could be used to reveal the G4-binding specificity of unlabeled molecules via a competition with Cy5-PDS binding was explored. Three example molecules, unlabeled PDS, TMPyP4 (a planar molecule that nonspecifically binds G4 structures^14), and DC-34 (a molecule that selectively binds the MYC G4^15) were examined. […] The binding of unlabeled DC-34 was examined (FIG. 4). There appear to be no features that are better-bound in the presence of DC-34. […] This is consistent with the observation that DC-34 binds the top and bottom surfaces of the G4 and makes specific contacts with purines in the tail sequences.^15 The general properties of features in which DC-34 reduced binding of Cy5-PDS (ratio of PDS/PDS+DC-34) were also examined.
as §1
Protein or molecule-bound microarrays were scanned with the G5761A SureScan Dx Microarray Scanner System (Agilent) to detect a Cy5 signal at two laser settings (30 and 100 PMT) to ensure signal intensities were below saturation. Spot intensities from microarray images were extracted using the Agilent Feature Extraction Software and are reported as raw fluorescence units. All binding assays were performed at least twice, with high agreement between replicates (R>0.8). Microarrays with the fewest number of saturated spots were used for further analysis. […] The measured array data (Design 3, PDS) and predictions were normalized using the following
Custom G4 microarrays have been designed that contain a total of 19,249 G4 DNA sequences [31, the entirety of disclosure of which, including the supplemental information, is incorporated herein by reference]. […] After washing to remove the unbound Cy5-PDS and BMVC, the fluorescence intensities of Cy5-PDS bound to DNA oligonucleotides were detected using a fluorescence scanner. The binding selectivity of BMVC to different G4 structures was assessed by measuring the relative fluorescence intensity reduction of Cy5-PDS as BMVC concentration increased. […]

binding specificity, G4 vs non-G4 ssDNA sequences [2]: bind only G4 sequences
Molecule: IGF2: GST-tagged human insulin-like growth factor II, full length ORF
effect of lithium chloride (inhibiting G4 formation) on protein binding [1]: weakened binding

Molecule: WRN: GST-tagged human Werner syndrome RecQ like helicase
effect of lithium chloride (inhibiting G4 formation) on protein binding [1]: weakened binding
binding to hTelomeric (hyb-2 G4) and hTelomeric1 (hyb-1 G4) sequences (human telomeric G4s): can bind both hTelomeric (hyb-2 G4) and hTelomeric1 (hyb-1 G4) sequences

Molecule: BLM: GST-tagged human Bloom's syndrome protein helicase
effect of lithium chloride (inhibiting G4 formation) on protein binding [1]: weakened binding
binding to hTelomeric (hyb-2 G4) and hTelomeric1 (hyb-1 G4) sequences (human telomeric G4s): specifically binds the wt hTelomeric sequence that forms hyb-2 G4

effect of unlabeled competitor on Cy5-PDS binding ([3]; 1 μM Cy5-PDS, various concentrations of unlabeled competitor): no change in binding specificity
binding selectivity profile to different G4 sequences ([3]; 1 μM unlabeled ligand and 1 μM Cy5-PDS): bind less selectively
Molecule: NCCOc1cc(C(=O)Nc2cc(OCCN)c3ccccc3n2)nc(C(=O)Nc2cc(OCCN)c3ccccc3n2)c1 [pyridostatin]

Molecule: CNBP: GST-tagged human cellular nucleic acid binding protein
effect of lithium chloride (inhibiting G4 formation) on protein binding [1]: does not inhibit DNA binding

B1: PIF1: GST-tagged human PIF1 helicase (protein, listed as Homo sapiens)
chain: MLSGIEAAAGEYEDSELRCRVAVEELSPGGQPRRRQALRTAELSLGRNERRELMLRLQAPGPAGRPRCFPLRAARLFTRFAEAGRSTLRLPAHDTPGAGAVQLLLSDCPPDRLRRFLRTLRLKLAAAPGPGPASARAQLLGPRPRDFVTISPVQPEERRLRAATRVPDTTLVKRPVEPQAGAEPSTEAPRWPLPVKRLSLPSTKPQLSEEQAAVLRAVLKGQSIFFTGSAGTGKSYLLKRILGSLPPTGTVATASTGVAACHIGGTTLHAFAGIGSGQAPLAQCVALAQRPGVRQGWLNCQRLVIDEISMVEADLFDKLEAVARAVRQQNKPFGGIQLIICGDFLQLPPVTKGSQPPRFCFQSKSWKRCVPVTLELTKVWRQADQTFISLLQAVRLGRCSDEVTRQLQATASHKVGRDGIVATRLCTHQDDVALTNERRLQELPGKVHRFEAMDSNPELASTLDAQCPVSQLLQLKLGAQVMLVKNLSVSRGLVNGARGVVVGFEAEGRGLPQVRFLCGVTEVIHADRWTVQATGGQLLSRQQLPLQLAWAMSIHKSQGMTLDCVEISLGRVFASGQAYVALSRARSLQGLRVLDFDPMAVRCDPRVLHFYATLRRGRSLSLESPDDDEAASDQENMDPIL
modifications: GST tag
notes: GST-tagged human PIF1 helicase
effect of lithium chloride (inhibiting G4 formation) on protein binding [1]: does not inhibit DNA binding
